The source of these data is paper PMC10794148.

Values joined by “and” are separate entries in the source; they are usually repeats but may differ in a detail not shown here. Equal values may be shown once.

Assay [1] deals with 6×His-Sumo tagged mouse cGAS catalytic domain (UniProt Q8C6L5). Description: TR-FRET competition assay. The conditions noted are these: unlabelled competitor at the highest titrated concentration, est. ~5,000 nM; signal is residual cGAS-biotin-NCP TR-FRET (lower = more competition); parent: est. 0.16; read off a plot. On the technique in general: In TR-FRET formats the signal depends on donor and acceptor labels being close together.

For assay [2], the target named is human nucleosome core particle, wild type, unlabelled (human) (UniProt P04908). In words: native gel or EMSA; 50 or 100 nM 147-bp hNCP with 200 or 50 nM mcGAS-CR and 0–1.2 µM MRN; 20 mM HEPES pH 7.5, 50 mM NaCl, 5% sucrose, 1 mM DTT; on ice; gel scanned for mcGAS-CR fluorescence, then ethidium bromide. (In general: Mobility shift assays separate free from complexed probe on a gel.)

Assay [3] addresses 147 bp nucleosome reconstituted with H2B(K125C)-biotin (human) (UniProt P04908). Description: AlphaScreen or HTRF; TR-FRET competition: 15 nM 6×His-Sumo-mcGAS, 2 nM biotin NCP, 4 nM Eu-W1024 streptavidin, 10 nM ULight-anti-6×His; 0–2,000 nM untagged MRN or 0–5,000 nM unlabelled nucleosome; 10 mM Tris-HCl pH 7.5, 50 mM NaCl, 5% glycerol, 0.01% NP-40, 0.01% CHAPS, 5 mM DTT, 100 µg/ml BSA; 1 h at room temperature. On the technique in general: Alpha assays give light when donor and acceptor beads are brought close together.

For “human nucleosome core particle, wild type, unlabelled (from UniProt P04908;P62807;Q71DI3;P62805) H2A:E61A; H2A:E64S; H2A:N68A; H2A:D72S; H2A:N89A; H2A:D90A; H2A:E91S”, the response (normalized fluorescence) in assay [1] stood at 0.63.
What is called stoichiometry N is a count of units in the complex or per binding partner. For “carboxyrhodamine-labelled mouse cGAS catalytic domain (from UniProt Q8C6L5 141-507) (domain or fragment)”, in assay [2], the stoichiometry N was 1 cGAS per NCP and 2 cGAS per NCP.
Substance “untagged MRN complex (mixture of 2 unlabelled MR:1 NBS1–Flag) (from UniProt P49959 1-708; Q92878 1-1312; O60934 1-754)” registered a percent reduction of the cGAS–NCP TR-FRET signal at plateau in assay [3] of 50%.
